Laboratory results taken from patent publication US20190225669A1 (ACCELERON PHARMA, published 2019).
Each block holds one binder with its values, some of them ahead of it.

Columns and labels:
[1] = molecular target: T1, activin B (UniProt P09529 293-407); assay: Biacore SPR
T1 sequence (looked up): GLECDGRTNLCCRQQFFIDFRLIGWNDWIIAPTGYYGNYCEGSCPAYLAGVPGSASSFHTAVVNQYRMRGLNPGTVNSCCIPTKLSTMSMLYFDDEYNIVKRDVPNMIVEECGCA
Description: (§1) Ligands were injected and allowed to flow over the captured receptor protein.

[2] = molecular target: T2, GDF6 (UniProt Q6KF10 336-455, limits assumed); assay: Biacore SPR
T2 construct: also called BMP13
T2 sequence (looked up): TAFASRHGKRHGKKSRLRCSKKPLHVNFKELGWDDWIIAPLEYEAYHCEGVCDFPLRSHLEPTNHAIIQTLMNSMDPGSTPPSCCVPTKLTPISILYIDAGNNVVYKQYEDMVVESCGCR
Description: as §1

[3] = molecular target: BMP2 (UniProt P12643 283-396); assay: Biacore SPR
Chain of BMP2 (P12643 283-396 limits assumed): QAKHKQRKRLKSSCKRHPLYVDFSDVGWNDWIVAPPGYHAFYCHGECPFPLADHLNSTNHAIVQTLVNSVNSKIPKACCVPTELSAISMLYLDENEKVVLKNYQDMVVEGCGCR
Description: as §1

[4] = molecular target: T3, BMP7 (UniProt P18075 293-431); assay: Biacore SPR
T3 sequence (looked up): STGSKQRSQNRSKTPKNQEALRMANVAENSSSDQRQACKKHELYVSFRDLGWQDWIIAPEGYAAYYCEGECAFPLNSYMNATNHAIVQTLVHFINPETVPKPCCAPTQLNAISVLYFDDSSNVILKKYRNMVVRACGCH
Description: as §1

[5] = molecular target: T4, GDF7 (UniProt Q7Z4P5 322-450, limits assumed); assay: Biacore SPR
T4 construct: also called BMP12
T4 sequence (looked up): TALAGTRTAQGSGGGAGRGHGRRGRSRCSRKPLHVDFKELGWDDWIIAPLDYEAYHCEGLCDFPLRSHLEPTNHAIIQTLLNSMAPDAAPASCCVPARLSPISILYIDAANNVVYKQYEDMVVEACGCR
Description: as §1

[6] = molecular target: T5, BMP5 (UniProt P22003 317-454, limits assumed); assay: Biacore SPR
T5 sequence (looked up): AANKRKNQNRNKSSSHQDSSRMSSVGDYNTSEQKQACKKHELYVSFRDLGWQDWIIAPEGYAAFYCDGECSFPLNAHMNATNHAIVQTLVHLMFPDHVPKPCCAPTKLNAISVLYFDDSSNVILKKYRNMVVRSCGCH
Description: as §1

[7] = molecular target: T6, GDF11 (UniProt O95390 299-407); assay: Biacore SPR
T6 construct: also called BMP11
T6 sequence (looked up): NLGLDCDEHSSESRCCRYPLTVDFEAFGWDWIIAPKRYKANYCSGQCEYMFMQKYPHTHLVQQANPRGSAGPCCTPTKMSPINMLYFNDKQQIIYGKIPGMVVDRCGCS
Description: as §1

[8] = molecular target: T7, BMP4 (UniProt P12644 293-408); assay: Biacore SPR
T7 sequence (looked up): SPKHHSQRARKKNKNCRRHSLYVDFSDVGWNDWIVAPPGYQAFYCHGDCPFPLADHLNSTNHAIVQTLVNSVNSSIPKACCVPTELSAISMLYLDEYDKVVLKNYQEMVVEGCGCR
Description: as §1

[9] = molecular target: T8, GDF5 (UniProt P43026 382-501); assay: Biacore SPR
T8 construct: also called BMP14
T8 sequence (looked up): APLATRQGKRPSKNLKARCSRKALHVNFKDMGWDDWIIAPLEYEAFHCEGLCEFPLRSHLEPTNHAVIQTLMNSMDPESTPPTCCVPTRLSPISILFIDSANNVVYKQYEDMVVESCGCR
Description: as §1

[10] = molecular target: T9, BMP6 (UniProt P22004 382-513, limits assumed); assay: Biacore SPR
T9 sequence (looked up): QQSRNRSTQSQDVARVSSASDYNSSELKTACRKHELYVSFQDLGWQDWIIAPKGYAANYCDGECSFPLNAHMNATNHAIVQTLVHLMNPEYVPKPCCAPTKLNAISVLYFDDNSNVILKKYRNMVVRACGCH
Description: as §1

[11] = molecular target: T10, GDF8 (UniProt O14793 267-375); assay: Biacore SPR
T10 construct: also called myostatin
T10 sequence (looked up): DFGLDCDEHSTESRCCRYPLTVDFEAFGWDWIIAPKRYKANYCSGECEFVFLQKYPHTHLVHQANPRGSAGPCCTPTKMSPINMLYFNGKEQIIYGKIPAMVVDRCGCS
Description: as §1

[12] = molecular target: T11, GDF3 (UniProt Q9NR23 251-364); assay: Biacore SPR
T11 sequence (looked up): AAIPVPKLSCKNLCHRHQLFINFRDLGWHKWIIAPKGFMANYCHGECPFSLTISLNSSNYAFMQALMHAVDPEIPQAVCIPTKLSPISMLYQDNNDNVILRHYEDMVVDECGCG
Description: as §1

[13] = molecular target: T12, BMP10 (UniProt O95393 317-424); assay: Biacore SPR
T12 sequence (looked up): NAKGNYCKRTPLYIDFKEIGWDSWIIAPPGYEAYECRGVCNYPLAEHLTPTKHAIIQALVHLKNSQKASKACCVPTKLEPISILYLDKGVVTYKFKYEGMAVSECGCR
Description: as §1

[14] = molecular target: T13, activin A (UniProt P08476 311-426); assay: Biacore SPR
T13 sequence (looked up): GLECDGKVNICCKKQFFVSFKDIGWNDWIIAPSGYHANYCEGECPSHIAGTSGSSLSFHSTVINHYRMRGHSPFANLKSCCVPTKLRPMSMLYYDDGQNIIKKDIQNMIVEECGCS
Description: as §1

[15] = molecular target: T14, BMP9 (UniProt Q9UK05 320-429); assay: Biacore SPR; kinetics indeterminate (transient)
T14 construct: also called GDF2
T14 sequence (looked up): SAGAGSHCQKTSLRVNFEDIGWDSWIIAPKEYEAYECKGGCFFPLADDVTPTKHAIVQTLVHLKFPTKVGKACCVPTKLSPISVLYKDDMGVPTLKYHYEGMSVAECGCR
Description: as §1

[16] = molecular target: T14, BMP9; assay: Biacore SPR
[17] = molecular target: T12, BMP10; assay: Biacore SPR; remark: listed apart in the source
[18] = molecular target: T15, TGFβ2 (human, UniProt P61812 303-414); assay: Biacore SPR; * low signal
T15 construct: Human (PeproTech) is stated for the A549 reporter assay; also called TGF-beta2
T15 sequence (looked up): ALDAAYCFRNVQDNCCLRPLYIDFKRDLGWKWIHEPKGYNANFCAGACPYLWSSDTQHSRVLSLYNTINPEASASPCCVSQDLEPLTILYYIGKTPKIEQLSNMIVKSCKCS
Description: (§2) The heteromeric or homomeric protein complexes were independently captured onto the system using an anti-Fc antibody. Ligands were injected and allowed to flow over the captured receptor protein.

[19] = molecular target: T16, TGFβ1 (human, UniProt P01137 279-390); assay: Biacore SPR; * low signal
T16 construct: Human (PeproTech) is stated for the A549 reporter assay; also called TGF-beta1
T16 sequence (P01137 279-390 limits assumed): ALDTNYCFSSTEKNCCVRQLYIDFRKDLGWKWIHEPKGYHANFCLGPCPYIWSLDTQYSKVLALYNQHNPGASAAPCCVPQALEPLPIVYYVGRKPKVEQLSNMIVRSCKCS
Description: as §2

[20] = molecular target: T17, TGFβ3 (human, UniProt P10600 301-412); assay: Biacore SPR; * low signal
T17 construct: Human (PeproTech) is stated for the A549 reporter assay; also called TGF-beta3
T17 sequence (looked up): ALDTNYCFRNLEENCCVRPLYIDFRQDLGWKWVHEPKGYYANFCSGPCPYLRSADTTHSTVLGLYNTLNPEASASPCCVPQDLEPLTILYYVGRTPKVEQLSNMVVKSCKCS
Description: as §2

[21] = molecular target: T15, TGFβ2; assay: cell-based or functional assay
[22] = molecular target: T16, TGFβ1; assay: cell-based or functional assay
[23] = molecular target: T17, TGFβ3; assay: cell-based or functional assay

- Kd [1]: 0.2 nM
- koff [1]: 0.00057 s⁻¹
- kon [1]: 2.8e+06 M⁻¹ s⁻¹
- Kd [2]: 1.6 nM
- koff [2]: 0.00045 s⁻¹
- kon [2]: 280000 M⁻¹ s⁻¹
- Kd [3]: 0.001 nM
- koff [3]: 1.1e-05 s⁻¹
- kon [3]: 8e+06 M⁻¹ s⁻¹
- Kd [4]: 1.9 nM
- koff [4]: 0.0015 s⁻¹
- kon [4]: 820000 M⁻¹ s⁻¹
- Kd [5]: 0.052 nM
- koff [5]: 0.0004 s⁻¹
- kon [5]: 7.5e+06 M⁻¹ s⁻¹
- Kd [6]: 0.64 nM
- koff [6]: 0.00058 s⁻¹
- kon [6]: 900000 M⁻¹ s⁻¹
- Kd [7]: 0.066 nM
- koff [7]: 0.0011 s⁻¹
- kon [7]: 1.6e+07 M⁻¹ s⁻¹
- Kd [8]: 0.003 nM
- koff [8]: 6.5e-06 s⁻¹
- kon [8]: 2.6e+06 M⁻¹ s⁻¹
- Kd [9]: 0.07 nM
- koff [9]: 0.00083 s⁻¹
- kon [9]: 1.2e+07 M⁻¹ s⁻¹
- Kd [10]: 0.015 nM
- koff [10]: 0.00029 s⁻¹
- kon [10]: 2e+07 M⁻¹ s⁻¹
- Kd [11]: 0.31 nM
- koff [11]: 0.00092 s⁻¹
- kon [11]: 3e+06 M⁻¹ s⁻¹
- Kd [12]: 5.9 nM
- koff [12]: 0.082 s⁻¹
- kon [12]: 1.4e+07 M⁻¹ s⁻¹
- Kd [13]: 0.031 nM
- koff [13]: 0.00094 s⁻¹
- kon [13]: 3e+07 M⁻¹ s⁻¹
- Kd [14]: 0.15 nM
- koff [14]: 0.005 s⁻¹
- kon [14]: 3.4e+07 M⁻¹ s⁻¹
- Kd [15]: > 33 nM
B1: ActRIIB-Fc:ALK3-Fc heterodimer (Fc fusion)
chain 1: GRGEAETRECIYYNANWELERTNQSGLERCEGEQDKRLHCYASWRNSSGTIELVKKGCWLDDFNCYDRQECVATEENPQVYFCCCEGNFCNERFTHLPEAGGPEVTYEPPPTAPTGGGTHTCPPCPAPELLGGPSVFLFPPKPKDTLMISRTPEVTCVVVDVSHEDPEVKFNWYVDGVEVHNAKTKPREEQYNSTYRVVSVLTVLHQDWLNGKEYKCKVSNKALPAPIEKTISKAKGQPREPQVYTLPPSRKEMTKNQVSLTCLVKGFYPSDIAVEWESNGQPENNYKTTPPVLKSDGSFFLYSKLTVDKSRWQQGNVFSCSVMHEALHNHYTQKSLSLSPGK
chain 2: GAQNLDSMLHGTGMKSDSDQKKSENGVTLAPEDTLPFLKCYCSGHCPDDAINNTCITNGHCFAIIEEDDQGETTLASGCMKYEGSDFQCKDSPKAQLRRTIECCRTNLCNQYLQPTLPPVVIGPFFDGSIRTGGGTHTCPPCPAPELLGGPSVFLFPPKPKDTLMISRTPEVTCVVVDVSHEDPEVKFNWYVDGVEVHNAKTKPREEQYNSTYRVVSVLTVLHQDWLNGKEYKCKVSNKALPAPIEKTISKAKGQPREPQVYTLPPSREEMTKNQVSLTCLVKGFYPSDIAVEWESNGQPENNYDTTPPVLDSDGSFFLYSDLTVDKSRWQQGNVFSCSVMHEALHNHYTQKSLSLSPG
notes: C-terminal Lys optional; also called ActRIIB-Fc:ALK3-Fc heterodimeric complex

- binding result [16]: no binding
- binding result [17]: no binding
- Kd [18]: 0.0004 nM
- koff [18]: 2.9e-06 s⁻¹
- kon [18]: 6.6e+06 M⁻¹ s⁻¹
- Kd [19]: 0.012 nM
- koff [19]: 0.0017 s⁻¹
- kon [19]: 1.4e+08 M⁻¹ s⁻¹
- Kd [20]: 0.038 nM
- koff [20]: 0.001 s⁻¹
- kon [20]: 2.7e+07 M⁻¹ s⁻¹
- IC50 (pM), CAGA12-luciferase reporter gene assay in A549 cells, TGFβ2 at 480 pg/mL [21]: ~200 pM
- IC50 (pM), CAGA12-luciferase reporter gene assay in A549 cells, TGFβ1 at 640 pg/mL [22]: < 350 pM
- IC50 (pM), CAGA12-luciferase reporter gene assay in A549 cells, TGFβ3 at 270 pg/mL [23]: < 90 pM
B2: TGFβRIISHORT-Fc:ALK5-Fc heterodimer (Fc fusion)
chain 1: TIPPHVQKSVNNDMIVTDNNGAVKFPQLCKFCDVRFSTCDNQKSCMSNCSITSICEKPQEVCVAVWRKNDENITLETVCHDPKLPYHDFILEDAASPKCIMKEKKKPGETFFMCSCSSDECNDNIIFSEEYNTSNPDTGGGTHTCPPCPAPELLGGPSVFLFPPKPKDTLMISRTPEVTCVVVDVSHEDPEVKFNWYVDGVEVHNAKTKPREEQYNSTYRVVSVLTVLHQDWLNGKEYKCKVSNKALPAPIEKTISKAKGQPREPQVYTLPPSRKEMTKNQVSLTCLVKGFYPSDIAVEWESNGQPENNYKTTPPVLKSDGSFFLYSKLTVDKSRWQQGNVFSCSVMHEALHNHYTQKSLSLSPGK
chain 2: ALLPGATALQCFCHLCTKDNFTCVTDGLCFVSVTETTDKVIHNSMCIAEIDLIPRDRPFVCAPSSKTGSVTTTYCCNQDHCNKIELPTTVKSSPGLGPVETGGGTHTCPPCPAPELLGGPSVFLFPPKPKDTLMISRTPEVTCVVVDVSHEDPEVKFNWYVDGVEVHNAKTKPREEQYNSTYRVVSVLTVLHQDWLNGKEYKCKVSNKALPAPIEKTISKAKGQPREPQVYTLPPSREEMTKNQVSLTCLVKGFYPSDIAVEWESNGQPENNYDTTPPVLDSDGSFFLYSDLTVDKSRWQQGNVFSCSVMHEALHNHYTQKSLSLSPG
notes: also called TGFβRIISHORT:ALK5-Fc Heterodimer; TGFβRII-Fc:ALK5-Fc heterodimer (short isoform)
